Data on 2 molecules can be found in paper PMC6527163, “Proteomic discovery of substrates of the cardiovascular protease ADAMTS7” (The Journal of Biological Chemistry, 2019).

This test addresses T1, ADAMTS7-T8 (human, UniProt Q9UKP4 237-1630).
T1 construct: signal peptide in the construct; human ADAMTS7 cDNA including the native signal peptide, truncated after Pro-1630 (T8); The construct is made as a zymogen; The stated enzyme concentrations are active protease, found by active-site titration with TIMP-4; also called purified ADAMTS7-T8; source: HEK cells stably expressing ADAMTS7-T8, conditioned medium, purified (anion exchange chromatography, gel …)
T1 sequence (looked up): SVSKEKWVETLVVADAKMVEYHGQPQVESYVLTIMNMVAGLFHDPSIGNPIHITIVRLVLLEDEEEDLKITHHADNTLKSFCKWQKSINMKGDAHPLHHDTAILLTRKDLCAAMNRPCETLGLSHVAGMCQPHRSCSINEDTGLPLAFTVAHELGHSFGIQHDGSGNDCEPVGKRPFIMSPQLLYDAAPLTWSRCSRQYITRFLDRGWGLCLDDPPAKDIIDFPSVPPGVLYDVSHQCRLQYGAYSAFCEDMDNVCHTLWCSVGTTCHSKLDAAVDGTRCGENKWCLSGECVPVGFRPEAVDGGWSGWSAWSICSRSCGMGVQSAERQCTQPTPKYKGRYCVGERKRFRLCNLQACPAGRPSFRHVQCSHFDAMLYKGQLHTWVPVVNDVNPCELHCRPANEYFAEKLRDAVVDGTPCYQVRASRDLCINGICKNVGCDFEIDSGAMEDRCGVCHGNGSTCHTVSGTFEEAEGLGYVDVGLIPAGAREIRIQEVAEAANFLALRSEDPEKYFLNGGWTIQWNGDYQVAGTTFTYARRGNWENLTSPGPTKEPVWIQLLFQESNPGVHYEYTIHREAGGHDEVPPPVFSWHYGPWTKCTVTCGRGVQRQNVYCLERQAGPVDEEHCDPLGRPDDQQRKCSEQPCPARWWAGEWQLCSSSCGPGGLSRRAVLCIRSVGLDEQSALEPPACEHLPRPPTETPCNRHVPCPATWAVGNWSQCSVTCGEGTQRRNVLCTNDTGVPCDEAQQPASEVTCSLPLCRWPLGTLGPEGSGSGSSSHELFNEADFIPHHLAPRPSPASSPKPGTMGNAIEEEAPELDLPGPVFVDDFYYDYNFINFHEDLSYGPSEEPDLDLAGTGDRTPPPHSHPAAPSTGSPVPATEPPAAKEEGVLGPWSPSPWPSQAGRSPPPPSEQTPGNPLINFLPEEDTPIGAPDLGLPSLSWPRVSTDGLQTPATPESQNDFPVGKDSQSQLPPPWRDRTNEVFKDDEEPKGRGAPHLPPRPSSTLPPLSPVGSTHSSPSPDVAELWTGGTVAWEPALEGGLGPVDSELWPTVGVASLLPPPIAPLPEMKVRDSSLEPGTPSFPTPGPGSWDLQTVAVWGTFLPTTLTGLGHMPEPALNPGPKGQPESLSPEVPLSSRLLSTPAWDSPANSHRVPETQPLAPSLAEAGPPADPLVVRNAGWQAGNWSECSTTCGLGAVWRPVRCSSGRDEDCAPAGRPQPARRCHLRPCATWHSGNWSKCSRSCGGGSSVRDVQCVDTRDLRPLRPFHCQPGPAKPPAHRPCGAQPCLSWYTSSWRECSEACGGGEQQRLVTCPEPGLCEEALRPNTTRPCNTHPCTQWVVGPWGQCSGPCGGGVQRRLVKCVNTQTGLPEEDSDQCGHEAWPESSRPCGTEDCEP
Briefly: enzyme inhibition assay (densitometry of LTBP4S-A cleavage on SDS-PAGE/Coomassie Blue); apparent Ki; TIMP (1.75-60 nM) pre-incubated with ADAMTS7-T8 for 1 h at 37 °C, then 18 nM ADAMTS7 and 10 μM LTBP4S-A for 17 h at 37 °C; 20 mM Tris, pH 7.5, 150 mM NaCl, 10 mM CaCl2. The conditions noted are these: both partners purified.

B1: TIMP-3 (natural protein, human, UniProt P35625 24-211, looked up)
chain: CTCSPSHPQDAFCNSDIVIRAKVVGKKLVKEGPFGTLVYTIKQMKMYRGFTKMPHVQYIHTEASESLCGLKLEVNKYQYLLTGRVYDGKMYTGLCNFVERWDQLTLSQRKGLNYRYHLGCNCKIKSCYYLPCFVTSKNECLWTDMLSNFGYPGYQSKHYACIRQKGGYCSWYRGWAPPDKSIINATDP
notes: recombinant human TIMP-3 (R&D Systems); No catalogue number or tags are stated; source: bought: R&D Systems (recombinant human)
Consider B1, for which the Ki amounted to 49 nM.

B2: TIMP-4 (natural protein, human, UniProt Q99727 30-224, looked up)
chain: CSCAPAHPQQHICHSALVIRAKISSEKVVPASADPADTEKMLRYEIKQIKMFKGFEKVKDVQYIYTPFDSSLCGVKLEANSQKQYLLTGQVLSDGKVFIHLCNYIEPWEDLSLVQRESLNHHYHLNCGCQITTCYTVPCTISAPNECLWTDWLLERKLYGYQAQHYVCMKHVDGTCSWYRGHLPLRKEFVDIVQP
notes: recombinant human TIMP-4 (R&D Systems); No catalogue number or tags are stated; source: bought: R&D Systems (recombinant human)
B2: the Ki was found to be 13 nM.
